What was measured:
EGFR [1] = biological target: T1, EGFR (UniProt P00533 25-645, limits assumed); assay: SPR, EGFR immobilised on the chip, antibody flowed; concentration not given [panel P1F1]
T1 construct: also called HER1
Description: (§1) In order to assess the specificity of the binding, molecules closely related to HER-2 were also used as bound antigens, namely EGFR and HER-3.

HER-3 [2] = biological target: T2, HER-3 (UniProt P21860 20-643, limits assumed); assay: SPR, HER-3 immobilised on the chip, antibody flowed; concentration not given [panel P1F1]
Description: as §1

[3] = biological target: T3, human HER-2 protein (soluble / recombinant, used in SPR) (human, UniProt P04626 23-652); assay: SPR
T3 construct: also called immobilized HER2 protein; recombinant HER-2

HER-3 [4] = biological target: T2, HER-3; assay: SPR, HER-3 immobilised on the chip, antibody flowed; concentration not given [panel P1A3]
Description: as §1

EGFR [5] = biological target: T1, EGFR; assay: SPR, EGFR immobilised on the chip, antibody flowed; concentration not given [panel P1A3]
Description: as §1

EGFR [6] = biological target: T1, EGFR; assay: SPR, EGFR immobilised on the chip, antibody flowed; concentration not given [panel P1C5]
Description: as §1

HER-3 [7] = biological target: T2, HER-3; assay: SPR, HER-3 immobilised on the chip, antibody flowed; concentration not given [panel P1C5]
Description: as §1

EGFR [8] = biological target: T1, EGFR; assay: SPR, EGFR immobilised on the chip, antibody flowed; concentration not given [panel P1E4]
Description: as §1

HER-3 [9] = biological target: T2, HER-3; assay: SPR, HER-3 immobilised on the chip, antibody flowed; concentration not given [panel P1E4]
Description: as §1

[10] = biological target: T3, human HER-2 protein (soluble / …); assay: SPR, immobilized HER2 protein
[11] = biological target: T3, human HER-2 protein (soluble / …); assay: SPR, human HER2 immobilised, Fab flown, 1:1 Langmuir model
Method: Rate constants of association, dissociation (kₐ, kd) and the equilibrium dissociation constants (KD) were determined for anti-HER2 Fab molecules. Human HER2 protein (50 μg/mL) was immobilised on the SPR sensor chip and was exposed to five different concentrations of each Fab in 2- or 3-fold dilutions over the flow cells. 1:1 Langmuir model was used to derive the constants.

T2 sequence (P21860 20-643 limits assumed): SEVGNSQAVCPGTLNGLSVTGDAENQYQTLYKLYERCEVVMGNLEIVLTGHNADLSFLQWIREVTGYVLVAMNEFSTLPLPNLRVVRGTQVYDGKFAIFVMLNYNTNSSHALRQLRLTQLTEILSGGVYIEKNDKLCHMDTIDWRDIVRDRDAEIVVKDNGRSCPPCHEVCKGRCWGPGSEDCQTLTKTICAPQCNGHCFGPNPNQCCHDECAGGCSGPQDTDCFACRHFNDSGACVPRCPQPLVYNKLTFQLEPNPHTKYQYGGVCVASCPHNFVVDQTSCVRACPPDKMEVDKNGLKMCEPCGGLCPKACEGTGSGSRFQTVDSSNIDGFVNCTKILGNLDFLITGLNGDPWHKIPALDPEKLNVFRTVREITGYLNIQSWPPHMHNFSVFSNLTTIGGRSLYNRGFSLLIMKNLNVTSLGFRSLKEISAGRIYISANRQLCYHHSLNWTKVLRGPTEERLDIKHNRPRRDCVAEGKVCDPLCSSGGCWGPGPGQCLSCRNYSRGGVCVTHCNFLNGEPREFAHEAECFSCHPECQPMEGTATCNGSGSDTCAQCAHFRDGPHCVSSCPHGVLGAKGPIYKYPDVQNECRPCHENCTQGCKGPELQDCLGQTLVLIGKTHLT

Binder	Kd [3] [nM]	koff [10] [s⁻¹]	Kd [11] [nM]	koff [11] [s⁻¹]	kon [11] [M⁻¹ s⁻¹]	other results
P1F1 antibody (antibody, V domains shown) VH: QVQLVESGPGLVKPSGTLSLTCAVSGGSISSSNWWSWVRQPPGKGLEWIGEIYHSGSTNYNPSLKSRVTISVDTSKNQFSLKLSSVTAADTAVYYCARMGANSGGYLYGMDVWGQGTTVTVSS VL: QTVVTQEPSFSVSPGGTVTLTCGLSSGSVSTSYYPSWYQQTPGQAPRTLIYSTNTRSSGVPDRFSGSILGNKAALTITGAQADDESDYYCVLYMGSGIWVFGGGTKLTVLG	11.6	–	–	–	–	binding result (EGFR [1]): no binding; binding result (HER-3 [2]): no binding
P1C5 antibody (antibody, V domains shown) VH: QVQLQESGPGLVKPSETLSLTCTVSGGSISSSSYYWGWIRQPPGKGLEWIGSIYYSGSTYYNPSLKSRVTISVDTSKNQFSLKLSSVTAADTAVYYCARYAPDSSGYLVAFDIWGQGTMVTVSS VL: QTVVTQEPSFSVSPGGTVTLTCGLSSGSVSTGYYPSWYQQTPGQAPRTLIYSTNSRSSGVPDRFSGSILGNKAALTITGAQADDESDYYCVLYMGSGISVFGGGTKLTVLG	12.7	–	–	–	–	binding result (EGFR [6]): no binding; binding result (HER-3 [7]): no binding
P1E4 antibody (antibody, V domains shown) VH: QVQLQQWGAGLLKPSETLSLTCAVYGGSFSGYYWSWIRQPPGKGLEWIGEINHSGSTNYNPSLKSRVTISVDTSKNQFSLKLSSVTTADTAVYYCARMGINSGGYLYGMDVWGQGTTVTVSS VL: QTVVTQEPSFSVSPGGTVTLTCGLSSGSVSTSYYPSWYQQIPGQAPRTLIYTTNIRSSGVPDRFGGSILGNKAALTITGAQAEDESDYYCMLYMGSGIWVFGGGTKLTVLG	5.3	–	–	–	–	binding result (EGFR [8]): no binding; binding result (HER-3 [9]): no binding
PFE1 Fab (Fab, V domains shown, Printed entries run through CL and CH1 (Fab chains); Label E1 tied to PFE1 by inference) VH: EVQLVQSGGGVVQPGRSLRLSCAASGFTFSSYAMHWVRQAPGKGLEWVAVISYDGSNKYYADSVKGRFTISRDNSKNTLYLQMNSLRAEDTAVYYCARSRGYYGMDVWGQGTTVTVSS VL: DVVMTQSPLSLPVTLGQPASISCTSSQSLVYSDGNTYLNWFQQRPGQSPRRLIYKVSKRDSGVPDRFSGSGSGTDFTLKISRVEAEDVAIYYCMQGTHWPLTFGGGTKVEIKR	–	0.013	16.5	0.026	1.59e+06	–
PFF5 Fab (Fab, V domains shown) VH: QVQLQESGPGLVKPSETLSLTCTVSGGSISSSSYYWGWIRQPPGKGLEWIGSIYYSGSTYYNPSLKSRVTISVDTSKNQFSLRLSSVSAADTAVYYCARYAPDSSGYLVAFDIWGQGTMVTVSS VL: QAVVIQEPSFSVSPGGTVTLTCGLSSGSVSTTYYPSWYQQTPGQAPRTLIYSTNTRSSGVPDRFSGSILGNKAALTITGAQADDESDYYCVLYMGNGISVFGGGTKLTVLG	–	0.0141	305	0.014	44500	–

Second part, led by results:

Kd [3] [nM]	koff [10] [s⁻¹]	Kd [11] [nM]	koff [11] [s⁻¹]	kon [11] [M⁻¹ s⁻¹]	Binder	other results
21.4	–	–	–	–	P1A3 antibody (antibody, V domains shown) VH: EVQLVQSGTEVKKPGASVRVSCKSSGYTFTSYYIHWVRQAPGQGLEWMAIINPGNGDTNYAQRFQGRVTMTRDTSTSTVYMELRSLRSDDTAVYFCAREIASYSGSYYDYWGQGTLVTVSS VL: QAVVTQEPSLSVSPGGTVTLTCGLSSGSVSTGHYASWYQQTPGQAPRTLFYNTNTRSSGVPDRFSGSIVGNKAALTITGAQADDESDYYCVLYVGDGIWVFGGGTKLTVLG	binding result (HER-3 [4]): no binding; binding result (EGFR [5]): no binding
–	0.0158	183	0.019	108000	PFG3 Fab (Fab, V domains shown, Printed entries run through CL and CH1 (Fab chains); Label G3 tied to PFG3 by inference) VH: EVQLVQSGAEVKKPGTSVTVSCRASGFTFSDYYIHWVRQAPGQGLEWMGWVSAYNGDTNYAQKFQGRVTVTTDTSTSTAYMELRSLRSDDTAVYFCAREIASYSGSYYDYWGQGTLVTVSS VL: QAVVLQEPSFSVSPGGTVTLTCGLTSGAVSSSYYPSWYQQTPGQAPRTLIYNTDIRFSGVPDRFSGSILGNKAALTITGAQADDESDYYCVLYMGSGISVFGGGTKLTVLG	–
–	0.0322	17.6	0.078	4.41e+06	PFB4 Fab (Fab, V domains shown, Printed entries run through CL and CH1 (Fab chains); Label B4 tied to PFB4 by inference) VH: EVQLVQSGGGVVQPGRSLRLSCAASGFTFSSYGMHWVRQAPGKGLEWVAVISYDGSNKYYADSVKGRFTISRDDSKNTLYLQMNSLRAEDTAVYYCAKDRGYYGMDVWGQGTTVTVSS VL: QAVVIQEPSLTVSPGGTVTLTCGSTTGAVTSGHYPSWFQQKPGQAPRALIYSTSNKHSWTPARFSGSLLGGKAALTLSGVQPEDEAEYYCLLYYGGARVFGGGTKLTVLG	–

— US20210139605A1 (AGENCY FOR SCIENCE TECHNOLOGY AND RESEARCH, published 2021)
